The results in this text go back to patent US20240000961A1, “ANTIBODY-BASED CONJUGATE FOR ENHANCING THERAPEUTIC EFFECT OF TARGETED THERAPEUTIC AGENT” (THE CATHOLIC UNIVERSITY OF KOREA INDUSTRY-ACADEMIC …, priority 2020, published 2024).

For one data set, the system named is L929 normal cells. Format: cell-based. The following applies: for toxicity: L929, at a concentration less than 10 μl/ml; for cytotoxicity: L929 normal cells, MTT, treated 4 hours then cultured 1 day.
The test system of the next data set is NIH3T3 normal cells. Type of data set: cell-based. Conditions: for toxicity: NIH3T3, at a concentration less than 10 μl/ml; for cytotoxicity: NIH3T3 normal cells, MTT, treated 4 hours then cultured 1 day.
In data set [1] the test system is A549 lung cancer cell line expressing PD-L1. Format: cell-based. The protocol:
(§1) Thereafter, the viability and cytotoxicity of cells were analyzed in the same manner as in Experimental Example 2-1.
(§2) Lung cancer and colorectal cancer cell lines expressing PD-L1 (A549 and HCT116, respectively) were cultured, and then treated with an avelumab-succinyl-Pluronic conjugate. Thereafter, the viability and cytotoxicity of cells were analyzed in the same manner as in Experimental Example 2-1.

Data set [2] relates to HCT116 (HCTE116) colorectal cancer cell line expressing PD-L1. Type of data set: cell-based. The protocol:
as §1, §2

The subject of data set [3] is SKOV3 cells, ovarian cell line expressing the EGFR.
Method: (§3) Thereafter, the cells were washed with a buffer solution, and further cultured for 1 day by adding a clean medium thereto.
(§4) The cultured cells were treated with MTT reagent and further cultured for 3 hours, then the culture solution and the MTT reagent were both removed, and dimethyl sulfoxide was added to dissolve formazan formed in the cells. Thereafter, absorbance was measured at 570 nm to compare the amounts of formazan formed and analyze the viability and cytotoxicity of cancer cells.
The subject of data set [4] is NIH-3T3 cells (do not express EGFR). Conditions: NIH-3T3, 2 hours, flow cytometer; non-specific inflow.
Method: Thereafter, the cells were washed with a buffer solution and the targeting ability to each type of cell was analyzed by a flow cytometer.

Method for L929 normal cells: as §3, §4
Method for NIH3T3 normal cells: as §3, §4

Consider “avelumab-maleimide-Pluronic F68 [AVE-Mal-PF68]”, for which the toxicity result with L929 normal cells and in the data set on NIH3T3 normal cells was “non-toxic” each time. Regarding “avelumab-maleimide-Pluronic F127 [AVE-Mal-PF127]”, the toxicity result with L929 normal cells and with NIH3T3 normal cells was “non-toxic” throughout. With “avelumab-maleimide-polyethylene glycol 2K [AVE-Mal-PEG2K, reference compound]”, the toxicity result in the data set with L929 normal cells and with NIH3T3 normal cells was “non-toxic” throughout.

Regarding “avelumab-maleimide-polyethylene glycol 6K [AVE-Mal-PEG6K, reference compound]”, the toxicity result in the data set on L929 normal cells and in the data set with NIH3T3 normal cells was “non-toxic” in each case. For “avelumab-succinyl-Pluronic F68 [AVE-Suc-PF68]”, the “cytotoxicity compared to avelumab antibody alone (AVE) or AVE-Suc-PEG2K/PEG5K” value in data set [1] and in data set [2] was “greater increase in cytotoxicity” each time. Turning to “avelumab-succinyl-Pluronic F127 [AVE-Suc-PF127]”, the “cytotoxicity compared to avelumab antibody alone (AVE) or AVE-Suc-PEG2K/PEG5K” value in data set [1] and in data set [2] was “greater increase in cytotoxicity” in each case. Take maleimide-Pluronic F68 [Mal-PF68]: the cytotoxicity entry in data set [3] is recorded as “non-cytotoxic”. In the case of “maleimide-Pluronic F68-chlorin e6 [Mal-PF68-Ce6]”, the “fluorescence signals compared to CTX-Mal-PF68-Ce6 or CTX-Mal-PEG2K-Ce6 treatment group” value in data set [4] was “increased”. Consider “maleimide-polyethylene glycol 2K-chlorin e6 [Mal-PEG2K-Ce6, reference compound]”, for which, in data set [4], the “fluorescence signals compared to CTX-Mal-PF68-Ce6 or CTX-Mal-PEG2K-Ce6 treatment group” value is recorded as “increased”.

Consider “ramucirumab-maleimide-Pluronic F68 [RAM-Mal-PF68]”, for which the cytotoxicity result in the data set on L929 normal cells and in the data set with NIH3T3 normal cells was “non-toxic” each time. As to “ramucirumab-maleimide-Pluronic F127 [RAM-Mal-PF127]”, the cytotoxicity entry in the data set with L929 normal cells and in the data set with NIH3T3 normal cells was “non-toxic” each time. Consider “ramucirumab-maleimide-polyethylene glycol 2K [RAM-Mal-PEG2K, reference compound]”, for which the cytotoxicity entry in the data set with L929 normal cells and with NIH3T3 normal cells was “non-toxic” throughout. For the substance “ramucirumab-maleimide-polyethylene glycol 6K [RAM-Mal-PEG6K, reference compound]”, the cytotoxicity entry with L929 normal cells and in the data set on NIH3T3 normal cells was “non-toxic” throughout.
